Several values for one entry are separate records, joined by “and”; a condition that tells them apart may be missing. Identical values can stand only once.
What was measured:
[1] = target: T1, human OX40 expressed on cells (human, UniProt P43489 29-277); test: cell-based or functional assay
T1 sequence: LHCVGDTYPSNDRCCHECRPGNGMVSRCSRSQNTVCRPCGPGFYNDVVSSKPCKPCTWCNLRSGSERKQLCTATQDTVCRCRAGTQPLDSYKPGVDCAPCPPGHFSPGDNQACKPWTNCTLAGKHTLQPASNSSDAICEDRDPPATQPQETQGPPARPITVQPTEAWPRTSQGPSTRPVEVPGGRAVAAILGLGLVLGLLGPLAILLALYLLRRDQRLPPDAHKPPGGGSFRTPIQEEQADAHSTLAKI

[2] = target: T2, mouse OX40 expressed on 293s cells (mouse, UniProt P47741 20-272); test: flow cytometry on 293s-muOX40 cells
T2 construct: also called murine OX40
T2 sequence: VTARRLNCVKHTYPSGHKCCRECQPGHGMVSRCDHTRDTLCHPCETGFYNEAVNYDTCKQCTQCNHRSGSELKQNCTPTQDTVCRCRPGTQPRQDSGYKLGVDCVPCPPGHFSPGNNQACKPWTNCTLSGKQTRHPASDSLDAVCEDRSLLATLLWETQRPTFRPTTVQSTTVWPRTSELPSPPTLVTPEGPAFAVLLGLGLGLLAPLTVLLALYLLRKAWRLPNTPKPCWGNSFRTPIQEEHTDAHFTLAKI
Experimental: After plating cells, 50 μL of Hu3738 or isotype control antibody at 2 μg/mL were added to corresponding wells in duplicate for each cell line and allowed to incubate on ice for 30 minutes. Following incubation, 200 μL of Dulbecco's Phosphate Buffered Saline (DPBS) was added into each well and plates were spun down at 1000 rpm for three minutes. Supernatants from each well were removed and 50 μL of Cy5-Donkey anti-Human IgG (Jackson ImmunoResearch) secondary antibody was added at a 1:250 dilution, which was then incubated for 30 minutes on ice in the dark. Following the incubation period, 200 μL of DPBS was added prior to spinning down the plate at 1000 rpm for three minutes. Supernatants were removed and each well was re-suspended with 100 μL of DPBS+1% Formaldehyde. Samples were analyzed on the dual laser FACSCalibur flow cytometer (Becton Dickinson).

[3] = target: T3, rhesus OX40 expressed on 293 NF-κB reporter cells (rhesus macaque (Macaca mulatta), UniProt P43489 29-277 (human entry)); test: flow cytometry on NF-κB reporter cells expressing rhesus OX40
T3 construct: also called cell-surface rhesus monkey OX40
T3 chain: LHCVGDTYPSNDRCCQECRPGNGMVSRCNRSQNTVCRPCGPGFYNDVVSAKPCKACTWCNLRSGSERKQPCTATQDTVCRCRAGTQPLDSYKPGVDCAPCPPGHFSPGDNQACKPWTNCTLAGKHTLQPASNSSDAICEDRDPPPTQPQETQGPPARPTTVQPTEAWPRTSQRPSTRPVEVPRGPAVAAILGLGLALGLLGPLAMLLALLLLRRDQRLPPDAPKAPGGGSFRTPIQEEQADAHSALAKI
Experimental: Rhesus macaque (Macaca mulatta) OX40 is identical to cynomolgus monkey (Macaca fascicularis) OX40 (SEQ ID NO:2) at the amino acid level. […] For the binding assay, cells were resuspended at 5 million cells per mL. 50 μL (250,000 cells)/well were transferred to each well of a 500 μL polypropylene 96-well plate (Nunc). A 2× stock of test anti-OX40 antibody or isotype control monoclonal antibody was prepared in a separate dilution plate at 666, 333, 111, 37.03, 12.34, 4.11, 0.457, 0.152, 0.0508, 0.0169, 0.00564 nM in culture media. The monoclonal antibodies (50 μL/well) were transferred into respective wells of the assay plate. Cells were incubated with the primary antibodies for 30 minutes at 4° C. and washed twice with 250 μL/well of PBS by centrifuging at 800 rpm for 3 minutes. Bound antibody was detected with Cy5-Donkey anti-human IgG (H+L) (Jackson ImmunoResearch) diluted to 2 μg/mL (50 μL/well) in PBS for 30 minutes at 4° C. Cells were washed once with 250 μL/well of PBS, resuspended in PBS containing 1% Formaldehyde and analyzed on a dual laser FACSCalibur (Becton Dickinson).

[4] = target: T1, human OX40 expressed on cells; test: flow cytometry on Jurkat NF-κB reporter cells expressing human OX40
Experimental: A Jurkat NF-κB reporter cell line expressing human OX40 protein was cultured in DMEM containing 10% FBS and penicillin/streptomycin (pen/strep). For the binding assay, each cell line was resuspended at 5 million cells per mL. 50 μL (250,000 cells)/well were transferred to each well of a 500 μL polypropylene 96-well plate (Nunc). A 2× stock of test anti-OX40 antibody or isotype control mAb was prepared in a separate dilution plate at 666, 333, 111, 37.03, 12.34, 4.11, 0.457, 0.152, 0.0508, 0.0169, 0.00564 nM in culture media. Each antibody (50 μL/well) was transferred into respective wells of the assay plate. Cells were incubated with the test anti-OX40 antibody or isotype control antibodies for 30 minutes at 4° C. and washed twice with 250 μL/well of PBS by centrifuging at 800 rpm for 3 minutes. Bound antibody was detected with Cy5-Donkey anti-human IgG (H+L) (Jackson ImmunoResearch) diluted to 2 μg/mL (50 μL/well) in PBS for 30 minutes at 4° C. Cells were washed once with 250 μL/well of PBS, resuspended in PBS containing 1% Formaldehyde and analyzed on a dual laser FACSCalibur (Becton Dickinson).

- ADCC reporter activity, EC50 [1]: 0.51 nM and 77 ng/mL
- IFN-γ production by human CD4+ T cells, EC50 [1]: 0.16 nM and 24 ng/mL
- proliferation of human peripheral blood CD4+ T cells, EC50 [1]: 0.11 nM and 16 ng/mL
- binding result [2]: no binding (tested: 2 µg/mL)
- EC50 [3]: 2.1 nM
- EC50 [4]: 0.5 nM
B1: Hu3738 (antibody, V domains shown)
VH: EVQLVESGGGLVQPGGSLRLSCAASGFTFSRYGMSWVRQAPGKGLELVATINSNGGRTYYPDSVKGRFTISRDNAKNSLYLQMNSLRAEDTAVYYCAREGITTAYAMDYWGQGTTVTVSS
VL: DIVMTQSPDSLAVSLGERATINCKASQSVDYDGDSYMHWYQQKPGQPPKLLIYAASILESGVPDRFSGSGSGTDFTLTISSLQAEDVAVYYCQQSNEDPRTFGGGTKVEIKR
notes: Humanized antibody; also called exemplary anti-OX40 antibody Hu3738; Hu3738 VH.1b / Hu3738 VL.1
